By Kd is commonly meant a measure of binding affinity in units of concentration. Read a low Kd as higher affinity.

The target of experiment [1] is T1, Biotinylated GAK (cyclin G-associated kinase) (Homo sapiens, biotin (biotinylated; site and way not stated)).
T1 construct: Captured on a CAP chip with the Biotin CAPture kit; the general purification removes the His6 tag
T1 chain: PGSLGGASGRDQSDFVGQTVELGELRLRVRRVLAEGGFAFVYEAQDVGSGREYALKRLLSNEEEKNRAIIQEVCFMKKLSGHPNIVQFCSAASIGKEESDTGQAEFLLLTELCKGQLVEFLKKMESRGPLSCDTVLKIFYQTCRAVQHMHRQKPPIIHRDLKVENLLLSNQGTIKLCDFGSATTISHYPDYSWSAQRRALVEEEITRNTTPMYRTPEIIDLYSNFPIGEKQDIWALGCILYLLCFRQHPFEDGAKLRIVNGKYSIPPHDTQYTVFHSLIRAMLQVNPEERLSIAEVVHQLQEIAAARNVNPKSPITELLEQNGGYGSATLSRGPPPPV
The experiment is described as follows: SPR; same SPR experiment as the kinetic fit (biotinylated GAK on CAP chip, 25°C, 50 mM Tris/HCl pH 7.4, 150 mM NaCl); steady-state analysis. Conditions: both partners purified. Background: In SPR one partner is held on a chip, and binding of the other changes the refractive index at the surface.

In experiment [2] the target is T1, Biotinylated GAK (cyclin G-associated …). The experiment is described as follows: SPR; Biacore 3000, 25°C, 30 μl/min; biotinylated GAK captured on CAP chip (60-120 RU); nanobodies injected in serial 2-fold dilutions for 3 min; 50 mM Tris/HCl pH 7.4, 150 mM NaCl, 50 μM EDTA, 0.005% Tween 20; kinetic global fit, 1:1 Langmuir model. Conditions: both partners purified.

B1: NbGAK_1 (VHH)
VHH: QVQLQESGGGLVQPGGSLRLSCSASGFKFNDSYMSWVRRVPGKGLEWVAGIWEDSSAAHYRDSVKGRFTISRDNAKNMLYLQMSSLKSDDTGLYYCVRRGYSGDYRPINNPSSQGTQVTVSS
notes: about 120 amino acids; structure of the complex with GAK deposited here (one of PDB 4C57, 4C58, 4C59); From a GAK-immunised dromedary, phage display vector pMECS, which adds an HA and a His tag
For the molecule B1, the Kd was determined as 0.0603 µM in experiment [1] and 0.0599 µM in experiment [2].

B2: NbGAK_4 (VHH)
VHH: QVQLQESGGGSVQAGGSLRLSCGASEYTSRMGWFRQAPGAEREGVACIHRQSNLSYYSDSVRGRFTISQDNAKTTAFLLMSSLKPEDTAIYYCATTTDCAAFVERATAITAGQGTQVTVSS
notes: about 120 amino acids; structures of the complex with GAK deposited here (among PDB 4C57, 4C58, 4C59); From a GAK-immunised dromedary, phage display vector pMECS, which adds an HA and a His tag
On to B2, for which the Kd was 0.0128 µM in experiment [1] and 0.0103 µM in experiment [2].

The values are drawn from PMC3957475 (Biochemical Journal, 2014).
